Key:
[1] = molecular target: S1-Ig (12-672) (SARS-CoV; human, UniProt P59594 12-672); assay: ELISA, coated S1-IgG 12-672
[2] = molecular target: S1-Ig (261-672) (SARS-CoV; human, UniProt P59594 261-672); assay: ELISA, coated S1-IgG 261-672
[3] = molecular target: S1-Ig (12-510) (SARS-CoV; human, UniProt P59594 12-510); assay: ELISA, coated S1-IgG 12-510
[4] = molecular target: T1, S1-Ig (318-510) (SARS-CoV; human, UniProt P59594 318-510); assay: ELISA, coated S1-IgG 318-510
[5] = molecular target: T1, S1-Ig (318-510); assay: ELISA on coated S1-Ig fragment

Binder	Reactivity S1-IgG (ELISA OD) [1]	Reactivity S1-IgG (ELISA OD) [2]	Reactivity S1-IgG (ELISA OD) [3]	Reactivity S1-IgG (ELISA OD) [4]	binding result [5]
3C7 (antibody, V domains shown) VH: QVQLVESGGGVVQPGTSLRLSCAASGFTFSSYGIHWVRQAPGKGLEWVAVIWYDGSNKFYADSVKGRFTISRDNSKNTLYLQMNSLRAEDTAVYYCARDPLGYCSSTSCSYFDYWGQGTLVTVSS VL: DIQMTQSPSSVSASVGDRVTITCRASQGISNWLAWYQQKPGKAPKLLIYAASSLQSGVPSRFSGSGSGTDFTLTIRSLQPEDFATYYCQQANNFPLTFGGGTKVEIK	1.09 OD	0.357 OD	1.42 OD	2.19 OD	–
6B1 (antibody, V domains shown) VH: QVQLVESGGGVVQPGTSLRLSCAASGFTFSSYGIHWVRQAPGKGLEWVAVIWYDGSNKFHADSVKGRFTISRDNSKNTLYLQMNSLRAEDTAVYYCARDPLGYCSSTSCSYFDYWGQGTLVTVSS VL: DIQMTQSPSSVSASVGDRVTITCRASQGISNWLAWYQQKPGKAPKLLIYAASSLQSGVPSRFSGSGSGTDFTLTISSLQPEDFATYYCQQANNFPLTFGGGTKVEIK	1.13 OD	0.369 OD	1.17 OD	2.09 OD	–
1B5 (antibody, V domains shown) VH: QVQLVESGGGVVQPGRSLRLSCAASGFTFSSYGMHWVRQAPGKGLEWVAVIWYDGSNKYYADSVKGRFTISRDNSKNTLYLQMNSLRAEDTAVYYCARGDFYWFDPWGQGTLVTVSS VL: DIQMTQSPSSLSASVGDRVTITCRASQGIRSDLGWYQQRPGKTPKRLIYAASSLQSGVPSRFSGSGSGTEFTLTISSLQPEDFATYYCQQYNSYPLTFGGGTKVEIK	0.463 OD	0.11 OD	1.29 OD	0.191 OD	no binding
5E4 (antibody, V domains shown) VH: QVHLVQSGAEVKKPGASVKVSCKASGYTFTGYYVHWVRQAPGQGLEWMGWINPNSGGTNYAQKFQGRVTMTRDTSISTAYMELSRLRSDDTAVYFCAGGRYLDYWGQGTLVTVSS VL: DIQMTQSPSSLSASVGDRVTITCRASQGIRNDLGWYQQKPGKAPKRLIYAASSLQSGVPSRFSGSGSGTEFTLTISSLQPEDFATYYCLQYNSYPITFGQGTRLEIK	0.735 OD	0.298 OD	1.2 OD	2.27 OD	–
3H12 (antibody, V domains shown) VH: QVQLQESGPGLVKPSETLSLTCTVSDGSISSFYWSWIRQPPGKGLEWIGYIYYSGSTNYNPSLKSRVTISVDTSKNQFSLKLSSVTAADTAVYYCARDYDILTGYSNYYGMDVWGQGTTVTVSS VL: DIQMTQSPSSLSASVGDRVTITCRASQGIRNDLGWYQQKPGKAPKRLIYAASSLQSGVPSRFSGSGSGTEFTLTISSLQPEDFATYYCLQHNSYPFTFGPGTKLDIK	0.185 OD	0.09 OD	0.318 OD	1.3 OD	–
5D6 (antibody, V domains shown) VH: QVQLVQSGAEVKKPGASVKVSCKASGYTFTSYGISWVRQAPGQGLEWMGWISAYNGNTNYAQKLQGRVTMTTDTSTNTAYMELRSLRSDDTAVYYCAVGRYLDYWGQGTLVTVSS VL: DIQMTQSPSSLSASVGDRVTITCRASQDIRNDLGWYQQKPGKAPKRLIYAASSLQSGVPSRFSGSGSGTEFTLTISSLQPEDFATYYCLQYNSYPLTFGGGTKVEIK	0.747 OD	0.355 OD	1.31 OD	2.12 OD	–
4E2 (antibody, V domains shown) VH: not shown VL: DIQMTQSPSSLSASVGDRVTITCRASQGIRSDLGWYQQRPGKTPKRLIYAASSLQSGVPSRFSGSGSGTEFTLTISSLQPEDFATYYCQQYNSYPLTFGGGTKVEIK	0.019 OD	0.551 OD	1.52 OD	1.84 OD	–
5A5 (antibody, V domains shown) VH: not shown VL: DIQLTQSPSSLSASVGDRVTITCRASQGIRSDLGWYQQRPGKTPKRLIYAASSLQSGVPSRFSGSGSGTEFTLTISSLQPEDFATYYCQQYNSYPLTFGGGTKVEIK	0.986 OD	0.337 OD	1.19 OD	2.31 OD	–
4A10 (antibody, V domains shown) VH: not shown VL: DIQLTQSPSSLSASVGDRVTITCRASQGIRSDLGWYQQRPGKTPKRLIYAASSLQSGVPSRFSGSGSGTEFTLTISSLQPEDFATYYCQQYNSYPLTFGGGTKVEIK	1.01 OD	0.567 OD	1.52 OD	1.79 OD	–
3F3 (antibody, V domains shown) VH: not shown VL: DIQMTQSPSSLSASVGDRVTITCRASQGIRSDLGWYQQRPGNTPKRLIYAASSLQSGVPSRFSGSGSGTEFTLTISSLQPEDFATYYCQQYNSYPLTFGGGTKVEIK	1.07 OD	0.325 OD	1.35 OD	1.89 OD	–
6C2 (antibody, V domains shown) VH: not shown VL: DIQMTQSPSSLSASVGDRVTITCRASQGIRSDLGWYQQRPGNTPKRLIYAASSLQSGVPSRFSGSGSGTEFTLTISSLQPEDFATYYCQQYNSYPLTFGGGTKVEIK	1 OD	0.586 OD	1.6 OD	1.85 OD	–

From US20080248043A1 (Amgen, published 2008)
